# Measured values: the supplement of paper PMC9112550, “Optimization of the antimicrobial peptide Bac7 by deep mutational scanning” (BMC Biology, 2022)
# Tested on: Escherichia coli TOP10
# Test: shrunken log2 fold change of peptide-encoding DNA abundance (4.5 h post-induction vs induction); higher = less antimicrobial activity (less host growth inhibition)
# Settings: time post-induction: 4.5 h; library: site-saturation at positions 5, 18, 19, 20
# 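Further: peptides expressed intracellularly from a pBAD plasmid library in pooled LB shake-flask culture, induced with 0.3% L-arabinose, DNA abundance read by NGS, three biological replicates, DESeq2 with apeglm shrinkage.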
row,Sequence,shrunken log2 fold change
1,RRIRMRPPRLPRPRPRPPAVPRP,1.44
2,RRIRRRPPRLPRPRPRPPSTPRP,0.585
3,RRIRRRPPRLPRPRPRPWHMPRP,0.0729
4,RRIRNRPPRLPRPRPRPYYDPRP,-0.0248
5,RRIRNRPPRLPRPRPRPFRCPRP,-0.0563
6,RRIRSRPPRLPRPRPRPVQVPRP,0.159
7,RRIRERPPRLPRPRPRPYKRPRP,-0.905
8,RRIRHRPPRLPRPRPRPTFYPRP,-0.183
9,RRIRFRPPRLPRPRPRPYYFPRP,-0.706
10,RRIRKRPPRLPRPRPRPRCGPRP,0.451
11,RRIRLRPPRLPRPRPRPVHPPRP,0.039
12,RRIRQRPPRLPRPRPRPCVIPRP,-0.409
13,RRIRGRPPRLPRPRPRPYHCPRP,-0.0643
14,RRIRDRPPRLPRPRPRPFDGPRP,-0.192
15,RRIRFRPPRLPRPRPRPNYRPRP,0.055
16,RRIRQRPPRLPRPRPRPIEIPRP,-0.0062
17,RRIRTRPPRLPRPRPRPRLEPRP,0.32
18,RRIRIRPPRLPRPRPRPTKWPRP,-0.15
19,RRIRARPPRLPRPRPRPNLCPRP,0.0317
20,RRIRRRPPRLPRPRPRPTARPRP,0.494
21,RRIRERPPRLPRPRPRPPSEPRP,0.156
22,RRIRCRPPRLPRPRPRPMFIPRP,-1.16
23,RRIRRRPPRLPRPRPRPLTEPRP,0.793
24,RRIRDRPPRLPRPRPRPQWEPRP,0.033
25,RRIRGRPPRLPRPRPRPFQMPRP,0.0308

row,Sequence,shrunken log2 fold change
1,RRIRVRPPRLPRPRPRPNYFPRP,-0.303
2,RRIRFRPPRLPRPRPRPLQYPRP,-0.242
3,RRIRQRPPRLPRPRPRPAITPRP,-0.114
4,RRIRARPPRLPRPRPRPTHFPRP,0.809
5,RRIRYRPPRLPRPRPRPVNMPRP,-0.47
6,RRIRWRPPRLPRPRPRPIWHPRP,0.126
7,RRIRVRPPRLPRPRPRPFYYPRP,-0.556
8,RRIRNRPPRLPRPRPRPLNQPRP,-0.225
9,RRIRSRPPRLPRPRPRPDQMPRP,0.049
10,RRIRSRPPRLPRPRPRPVRCPRP,0.221
11,RRIRVRPPRLPRPRPRPFDEPRP,-0.242
12,RRIRERPPRLPRPRPRPDQNPRP,-0.108
13,RRIRGRPPRLPRPRPRPCSQPRP,0.19
14,RRIRTRPPRLPRPRPRPFDKPRP,-0.154
15,RRIRERPPRLPRPRPRPSQPPRP,0.0471
16,RRIRHRPPRLPRPRPRPTNFPRP,-0.398
17,RRIRIRPPRLPRPRPRPKDAPRP,0.176
18,RRIRFRPPRLPRPRPRPNPAPRP,0.0261
19,RRIRRRPPRLPRPRPRPMWAPRP,0.161
20,RRIRFRPPRLPRPRPRPNPNPRP,-0.168
21,RRIRLRPPRLPRPRPRPPREPRP,0.544
22,RRIRHRPPRLPRPRPRPTQNPRP,0.666
23,RRIRERPPRLPRPRPRPKQYPRP,-0.292
24,RRIRNRPPRLPRPRPRPGGWPRP,0.662
25,RRIRARPPRLPRPRPRPEYPPRP,0.0126

row,Sequence,shrunken log2 fold change
1,RRIRQRPPRLPRPRPRPSPMPRP,0.0696
2,RRIRERPPRLPRPRPRPVWFPRP,-0.0467
3,RRIRRRPPRLPRPRPRPVAPPRP,0.436
4,RRIRSRPPRLPRPRPRPYETPRP,-0.181
5,RRIRWRPPRLPRPRPRPIQSPRP,0.245
6,RRIRTRPPRLPRPRPRPWDAPRP,0.125
7,RRIRFRPPRLPRPRPRPQELPRP,-0.0341
8,RRIRMRPPRLPRPRPRPQGQPRP,0.253
9,RRIRIRPPRLPRPRPRPFQTPRP,-0.271
10,RRIRPRPPRLPRPRPRPWGKPRP,0.248
11,RRIRSRPPRLPRPRPRPLSHPRP,-0.462
12,RRIRFRPPRLPRPRPRPWYDPRP,0.13
13,RRIRDRPPRLPRPRPRPEDCPRP,-0.0123
14,RRIRPRPPRLPRPRPRPIEHPRP,-0.186
15,RRIRPRPPRLPRPRPRPQTCPRP,0.111
16,RRIRTRPPRLPRPRPRPTSHPRP,-0.478
17,RRIRCRPPRLPRPRPRPACLPRP,-0.111
18,RRIRVRPPRLPRPRPRPADEPRP,-0.0284
19,RRIRGRPPRLPRPRPRPILPPRP,0.0676
20,RRIRCRPPRLPRPRPRPTNVPRP,-0.154
21,RRIRHRPPRLPRPRPRPPIHPRP,-0.639
22,RRIRRRPPRLPRPRPRPKKHPRP,0.197
23,RRIRVRPPRLPRPRPRPHMLPRP,-0.311
24,RRIRRRPPRLPRPRPRPYHYPRP,-0.717
25,RRIRPRPPRLPRPRPRPLDIPRP,-0.408
